The record followed here is article PMC7577971.

This test deals with CR3022/S1 complex (one monomer of the spike ectodomain with one bound CR3022 Fab) (SARS-CoV-2 | human) (UniProt P0DTC2). As to the kind of experiment: cryo-EM structure.

Usually stoichiometry N stands for the number of molecules, sites or subunits per partner or assembly. Regarding “CR3022/S1 complex (one monomer of the spike ectodomain with one bound CR3022 Fab) (from UniProt P0DTC2 14-1208)”, the stoichiometry N amounted to 2.
